Data as given in paper PMC9482650, “Quantitative fragmentomics allow affinity mapping of interactomes” (Nature Communications, 2022).
Positions count from the first letter of the chain named.

Columns and labels:
Assay in all cases: holdup assay
Parameters in all cases: key: below the threshold = too weak to quantify, mostly under pKd 3.1 to 4
Settings in all cases: plain residues with an end cap or a label only (N-terminal biotin on a linker: ado-ado)
APBA1_2, Q02410 = target: T1, APBA1_2, Q02410
T1 sequence (Q02410 742-832, limits assumed, looked up): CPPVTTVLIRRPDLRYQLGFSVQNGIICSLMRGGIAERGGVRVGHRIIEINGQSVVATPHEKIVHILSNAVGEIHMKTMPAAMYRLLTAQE

ARHGEF12, Q9NZN5-2 = target: ARHGEF12, Q9NZN5-2
ARHGEF12, Q9NZN5-2, sequence (Q9NZN5 other isoform, or with tags, fused parts or gaps): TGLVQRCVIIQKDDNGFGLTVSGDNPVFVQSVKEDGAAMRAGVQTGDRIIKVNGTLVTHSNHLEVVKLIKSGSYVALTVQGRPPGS

DLG1_1, Q12959 = target: DLG1_1, Q12959
DLG2_2, Q15700 = target: DLG2_2, Q15700
DLG2_2, Q15700, sequence (Q15700 189-283): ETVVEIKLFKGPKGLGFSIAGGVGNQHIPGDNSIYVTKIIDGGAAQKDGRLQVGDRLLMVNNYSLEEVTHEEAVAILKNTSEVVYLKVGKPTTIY

DLG3_3, Q92796 = target: T2, DLG3_3, Q92796
T2 sequence (Q92796 374-475, limits assumed, looked up): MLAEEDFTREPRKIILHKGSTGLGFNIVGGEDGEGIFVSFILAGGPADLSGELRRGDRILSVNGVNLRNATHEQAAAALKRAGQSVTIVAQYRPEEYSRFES

DLG4_3, P78352 = target: DLG4_3, P78352
DLG4_3, P78352, sequence (P78352 306-403): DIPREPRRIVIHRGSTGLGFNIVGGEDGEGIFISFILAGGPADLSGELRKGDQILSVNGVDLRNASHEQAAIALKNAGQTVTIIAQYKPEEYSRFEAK

FRMPD2_1, Q68DX3 = target: FRMPD2_1, Q68DX3
FRMPD2_1, Q68DX3, sequence (Q68DX3 770-861): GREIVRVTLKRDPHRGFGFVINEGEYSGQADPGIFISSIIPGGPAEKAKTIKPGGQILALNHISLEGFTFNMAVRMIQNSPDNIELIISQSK

FRMPD2_2, Q68DX3 = target: FRMPD2_2, Q68DX3
FRMPD2_2, Q68DX3, sequence (Q68DX3 944-1038): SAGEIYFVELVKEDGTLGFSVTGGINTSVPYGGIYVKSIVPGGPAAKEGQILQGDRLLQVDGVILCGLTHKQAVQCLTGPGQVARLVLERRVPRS

FRMPD3, Q5JV73 = target: FRMPD3, Q5JV73
FRMPD3, Q5JV73, sequence (Q5JV73 12-100): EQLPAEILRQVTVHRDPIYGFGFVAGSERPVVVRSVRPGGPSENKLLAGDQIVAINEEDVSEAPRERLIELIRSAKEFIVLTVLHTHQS

GOPC, Q9HD26 = target: GOPC, Q9HD26
GORASP1, Q9BQQ3 = target: GORASP1, Q9BQQ3
GORASP1, Q9BQQ3, sequence (Q9BQQ3 1-208): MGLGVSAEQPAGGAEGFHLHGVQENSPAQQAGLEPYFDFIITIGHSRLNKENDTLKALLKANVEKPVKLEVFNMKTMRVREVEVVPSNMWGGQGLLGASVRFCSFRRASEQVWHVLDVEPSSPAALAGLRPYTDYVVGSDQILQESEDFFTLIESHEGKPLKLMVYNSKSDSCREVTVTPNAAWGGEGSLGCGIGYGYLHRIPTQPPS

GRIP2_3, Q9C0E4 = target: GRIP2_3, Q9C0E4
GRIP2_3, Q9C0E4, sequence (Q9C0E4 238-339): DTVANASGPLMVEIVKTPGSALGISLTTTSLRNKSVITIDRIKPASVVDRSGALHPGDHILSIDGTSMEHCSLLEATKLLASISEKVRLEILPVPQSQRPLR

HTRA3, P83110 = target: T3, HTRA3, P83110
T3 sequence (P83110 354-453, limits assumed, looked up): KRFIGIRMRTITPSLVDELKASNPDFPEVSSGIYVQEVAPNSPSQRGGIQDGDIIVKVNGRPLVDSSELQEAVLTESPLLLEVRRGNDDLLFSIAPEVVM

Inadl_1, Q8NI35 = target: Inadl_1, Q8NI35
Inadl_1, Q8NI35, sequence (Q8NI35 113-229): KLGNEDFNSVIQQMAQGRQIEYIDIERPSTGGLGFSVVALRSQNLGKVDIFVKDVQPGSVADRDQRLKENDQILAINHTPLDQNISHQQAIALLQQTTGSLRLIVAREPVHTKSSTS

Inadl_10, Q8NI35 = target: Inadl_10, Q8NI35
Inadl_10, Q8NI35, sequence (Q8NI35 1673-1763): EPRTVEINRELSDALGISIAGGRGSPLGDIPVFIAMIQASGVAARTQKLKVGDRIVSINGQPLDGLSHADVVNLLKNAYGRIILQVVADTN

Inadl_4, Q8NI35 = target: Inadl_4, Q8NI35
Inadl_4, Q8NI35, sequence (Q8NI35 547-651): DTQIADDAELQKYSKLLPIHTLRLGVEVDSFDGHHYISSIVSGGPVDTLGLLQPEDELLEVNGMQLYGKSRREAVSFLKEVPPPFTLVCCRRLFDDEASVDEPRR

Inadl_6, Q8NI35 = target: Inadl_6, Q8NI35
Inadl_6, Q8NI35, sequence (Q8NI35 1058-1167): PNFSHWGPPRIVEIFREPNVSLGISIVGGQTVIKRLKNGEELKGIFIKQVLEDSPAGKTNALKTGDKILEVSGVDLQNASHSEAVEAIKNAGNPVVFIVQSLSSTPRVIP

Inadl_8, Q8NI35 = target: Inadl_8, Q8NI35
Inadl_8, Q8NI35, sequence (Q8NI35 1425-1530): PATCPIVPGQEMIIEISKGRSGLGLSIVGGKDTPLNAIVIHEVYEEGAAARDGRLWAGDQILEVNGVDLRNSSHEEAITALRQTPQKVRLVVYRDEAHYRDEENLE

LIN7B, Q9HAP6 = target: T4, LIN7B, Q9HAP6
T4 sequence (Q9HAP6 88-185, limits assumed, looked up): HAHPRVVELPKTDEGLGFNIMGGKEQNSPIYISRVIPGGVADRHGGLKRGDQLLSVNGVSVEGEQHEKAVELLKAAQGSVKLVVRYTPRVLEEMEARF

LIN7C, Q9NUP9 = target: T5, LIN7C, Q9NUP9
T5 sequence (Q9NUP9 88-185, limits assumed, looked up): T4 sequence (Q9HAP6 88-185, limits assumed, looked up) with A2S, D13E, V35I, V40I, Q65H, S79K, R89K, A96S

LNX1_2, Q8TBB1 = target: LNX1_2, Q8TBB1
LNX1_2, Q8TBB1, sequence (Q8TBB1 371-470): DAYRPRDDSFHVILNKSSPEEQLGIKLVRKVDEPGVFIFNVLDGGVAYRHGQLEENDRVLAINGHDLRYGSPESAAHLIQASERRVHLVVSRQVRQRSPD

LNX1_3, Q8TBB1 = target: LNX1_3, Q8TBB1
LNX1_3, Q8TBB1, sequence (Q8TBB1 500-596): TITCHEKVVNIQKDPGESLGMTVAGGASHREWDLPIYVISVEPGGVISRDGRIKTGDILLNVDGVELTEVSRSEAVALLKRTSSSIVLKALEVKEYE

MAGI1_2, Q96QZ7 = target: MAGI1_2, Q96QZ7
MAGI1_2, Q96QZ7, sequence (Q96QZ7 456-580): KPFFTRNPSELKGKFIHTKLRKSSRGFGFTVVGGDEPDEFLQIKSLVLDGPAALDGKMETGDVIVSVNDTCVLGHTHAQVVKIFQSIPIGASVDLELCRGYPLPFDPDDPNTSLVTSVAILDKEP

MAGI2_3, Q86UL8 = target: MAGI2_3, Q86UL8
MAGI2_3, Q86UL8, sequence (Q86UL8 600-682): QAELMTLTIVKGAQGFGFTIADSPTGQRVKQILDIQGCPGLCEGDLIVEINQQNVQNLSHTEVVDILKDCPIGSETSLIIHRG

MAGI3_2, Q5TCQ9 = target: MAGI3_2, Q5TCQ9
MAGI3_2, Q5TCQ9, sequence (Q5TCQ9 398-503): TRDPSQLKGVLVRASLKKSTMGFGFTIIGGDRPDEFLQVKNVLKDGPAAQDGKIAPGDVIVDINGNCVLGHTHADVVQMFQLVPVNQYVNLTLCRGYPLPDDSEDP

MAST2, Q6P0Q8 = target: MAST2, Q6P0Q8
MAST2, Q6P0Q8, sequence (Q6P0Q8 1099-1202): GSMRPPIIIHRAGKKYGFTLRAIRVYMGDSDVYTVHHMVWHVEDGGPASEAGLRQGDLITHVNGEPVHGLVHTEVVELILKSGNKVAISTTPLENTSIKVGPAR

NHERF3_3, Q5T2W1 = target: T6, NHERF3_3, Q5T2W1
T6 sequence (Q5T2W1 238-333, limits assumed, looked up): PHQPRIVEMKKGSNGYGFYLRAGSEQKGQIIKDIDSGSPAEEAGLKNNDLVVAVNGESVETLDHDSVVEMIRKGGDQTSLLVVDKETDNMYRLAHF

NHERF4_4, Q86UT5 = target: NHERF4_4, Q86UT5
NHERF4_4, Q86UT5, sequence (Q86UT5 464-550): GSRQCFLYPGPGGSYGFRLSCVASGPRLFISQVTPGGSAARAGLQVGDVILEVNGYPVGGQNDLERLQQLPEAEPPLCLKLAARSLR

PARD3_3, Q8TEW0 = target: PARD3_3, Q8TEW0
PARD3_3, Q8TEW0, sequence (Q8TEW0 582-685): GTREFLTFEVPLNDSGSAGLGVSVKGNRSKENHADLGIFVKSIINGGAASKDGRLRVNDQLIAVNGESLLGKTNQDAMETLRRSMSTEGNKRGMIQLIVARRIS

RHPN1, Q8TCX5 = target: T7, RHPN1, Q8TCX5
T7 sequence (Q8TCX5 508-602, limits assumed, looked up): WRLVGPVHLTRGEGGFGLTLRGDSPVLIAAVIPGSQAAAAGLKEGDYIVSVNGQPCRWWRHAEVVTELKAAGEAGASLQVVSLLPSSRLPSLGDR

SNTA1, Q13424 = target: T8, SNTA1, Q13424
T8 sequence (Q13424 82-180, limits assumed, looked up): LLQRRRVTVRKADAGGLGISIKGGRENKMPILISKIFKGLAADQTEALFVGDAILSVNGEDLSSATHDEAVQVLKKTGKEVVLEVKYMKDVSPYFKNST

Binder | pKd (APBA1_2, Q02410) | pKd (ARHGEF12, Q9NZN5-2) | pKd (DLG1_1, Q12959) | pKd (DLG2_2, Q15700) | pKd (DLG3_3, Q92796) | pKd (DLG4_3, P78352) | pKd (FRMPD2_1, Q68DX3) | pKd (FRMPD2_2, Q68DX3) | pKd (FRMPD3, Q5JV73) | pKd (GOPC, Q9HD26) | pKd (GORASP1, Q9BQQ3) | pKd (GRIP2_3, Q9C0E4) | pKd (HTRA3, P83110) | pKd (Inadl_1, Q8NI35) | pKd (Inadl_10, Q8NI35) | pKd (Inadl_4, Q8NI35) | pKd (Inadl_6, Q8NI35) | pKd (Inadl_8, Q8NI35) | pKd (LIN7B, Q9HAP6) | pKd (LIN7C, Q9NUP9) | further results
QRYPGNQTTC [CCL24, O00175] | below the threshold | 4.15 | 3.71 | 3.51 | below the threshold | below the threshold | below the threshold | below the threshold | below the threshold | below the threshold | below the threshold | below the threshold | 3.74 | below the threshold | below the threshold | below the threshold | below the threshold | below the threshold | 3.85 | below the threshold | pKd (LNX1_2, Q8TBB1): 3.49; pKd (LNX1_3, Q8TBB1): below the threshold; pKd (MAGI1_2, Q96QZ7): below the threshold; pKd (MAGI2_3, Q86UL8): below the threshold; pKd (MAGI3_2, Q5TCQ9): below the threshold; pKd (MAST2, Q6P0Q8): 4.74; pKd (NHERF3_3, Q5T2W1): below the threshold; pKd (NHERF4_4, Q86UT5): below the threshold; pKd (PARD3_3, Q8TEW0): below the threshold; pKd (RHPN1, Q8TCX5): 4.2; pKd (SNTA1, Q13424): below the threshold
KLQNPNQSVV [TYRP1, P17643] | 3.56 | 3.92 | 3.83 | 3.86 | below the threshold | below the threshold | below the threshold | below the threshold | below the threshold | 3.72 | 3.53 | below the threshold | below the threshold | below the threshold | below the threshold | below the threshold | below the threshold | 3.97 | below the threshold | below the threshold | pKd (LNX1_2, Q8TBB1): below the threshold; pKd (LNX1_3, Q8TBB1): below the threshold; pKd (MAGI1_2, Q96QZ7): below the threshold; pKd (MAGI2_3, Q86UL8): below the threshold; pKd (MAGI3_2, Q5TCQ9): 4.46; pKd (MAST2, Q6P0Q8): 4.7; pKd (NHERF3_3, Q5T2W1): below the threshold; pKd (NHERF4_4, Q86UT5): below the threshold; pKd (PARD3_3, Q8TEW0): below the threshold; pKd (RHPN1, Q8TCX5): 3.77; pKd (SNTA1, Q13424): 3.99
PKSNSSKEYV [CLDN7, O95471] | 3.69 | below the threshold | below the threshold | below the threshold | below the threshold | below the threshold | below the threshold | below the threshold | below the threshold | 3.7 | below the threshold | below the threshold | 3.8 | below the threshold | below the threshold | below the threshold | below the threshold | below the threshold | below the threshold | 4.06 | pKd (LNX1_2, Q8TBB1): below the threshold; pKd (LNX1_3, Q8TBB1): below the threshold; pKd (MAGI1_2, Q96QZ7): below the threshold; pKd (MAGI2_3, Q86UL8): below the threshold; pKd (MAGI3_2, Q5TCQ9): below the threshold; pKd (MAST2, Q6P0Q8): 3.65; pKd (NHERF3_3, Q5T2W1): below the threshold; pKd (NHERF4_4, Q86UT5): below the threshold; pKd (PARD3_3, Q8TEW0): below the threshold; pKd (RHPN1, Q8TCX5): below the threshold; pKd (SNTA1, Q13424): below the threshold
